Laboratory results published in the supplement of paper PMC6757056.
± gives the standard deviation of the averaged measurements.

B1: library; a variant is named by its letters at N, in order (parent)
chain: GCUGUCACCGAGAAACUGUGAAGUAUAUCUUAAACCUGGGCACUUAAAAGAUAUAUGGAGUUAGUAGUGCAACCUGCUCGGUCUGAUGAGUCCNNNNNNGGACGAAACAGC

Key:
cyclic di-GMP [1] = variants of: B1; experiment: normalized RNA/DNA level without ligand (relative to sTRSVctl = 100) (log10 (% of sTRSVctl)); HEK293T; ligand: cyclic di-GMP (c-di-GMP-II aptamer); higher = less ribozyme self-cleavage, higher mRNA level; settings: reporter: mCherry (pCS4076), ligand present: no
In short: (§1)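 Ribozyme switch library plasmids with mCherry reporters (eGFP in certain ligand experiments) went into HEK293T cells at 4 µg per 6-well well. Where ligand was used, it was applied 1 h before transfection, and total RNA was extracted with EDTA 72 h later for reverse transcription, amplification, barcoding and sequencing. RNA level is the RNA-to-DNA read ratio normalized to a spiked-in non-cleaving sequence or to the leading sequences, then scaled and log-transformed. Scaling was ×100 with log10, the leading set comprised 25 sequences, and the cutoff was ≥100 DNA reads.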

cyclic di-GMP [2] = variants of: B1; experiment: normalized RNA/DNA level with ligand (relative to sTRSVctl = 100) (log10 (% of sTRSVctl)); HEK293T; ligand: cyclic di-GMP (c-di-GMP-II aptamer); ligand concentration (+) RNA-Seq: 1 mM; higher = less ribozyme self-cleavage, higher mRNA level; settings: reporter: mCherry (pCS4076), ligand present: yes
In short: as §1

Variant | normalized RNA/DNA level without ligand (log10) (cyclic di-GMP [1]) | normalized RNA/DNA level with ligand (log10) (cyclic di-GMP [2])
ACCCCA | 1.744 ± 0.012 | 1.86 ± 0.1
UCCCUC | 1.78 ± 0.038 | 1.89 ± 0.14
UCCCUU | 1.69 ± 0.056 | 1.86 ± 0.14
AUCACC | 1.77 ± 0.035 | 1.87 ± 0.068
UUUAGA | 1.716 ± 0.011 | 1.87 ± 0.086
CUGUCG | 1.73 ± 0.047 | 1.84 ± 0.14
ACUGUU | 1.452 ± 0.011 | 1.67 ± 0.13
UACAGC | 1.619 ± 0.0088 | 1.77 ± 0.11
UACCUA | 1.68 ± 0.018 | 1.82 ± 0.081
GGGCCC | 1.92 ± 0.07 | 1.99 ± 0.056
GUCAAG | 1.57 ± 0.031 | 1.75 ± 0.077
GAACCA | 1.677 ± 0.0078 | 1.8 ± 0.13
UGUAAG | 1.73 ± 0.022 | 1.84 ± 0.089
UAGUGU | 1.62 ± 0.034 | 1.81 ± 0.13
GUUGCU | 1.7 ± 0.039 | 1.84 ± 0.1
UGGAUA | 1.65 ± 0.043 | 1.8 ± 0.11
GAAUUA | 1.55 ± 0.026 | 1.74 ± 0.097
AUAGCG | 1.73 ± 0.02 | 1.85 ± 0.15
AUAAUC | 1.677 ± 0.0067 | 1.77 ± 0.08
UUAGUU | 1.77 ± 0.019 | 1.86 ± 0.14
CUGUGG | 1.7 ± 0.048 | 1.85 ± 0.11
CUGUGC | 1.739 ± 0.013 | 1.85 ± 0.095
AAUCCG | 1.83 ± 0.037 | 1.93 ± 0.028

Variant | normalized RNA/DNA level without ligand (log10) (cyclic di-GMP [1]) | normalized RNA/DNA level with ligand (log10) (cyclic di-GMP [2])
UUCUAG | 1.75 ± 0.047 | 1.84 ± 0.15
GCCGAG | 1.65 ± 0.031 | 1.72 ± 0.091
UGAGGG | 1.63 ± 0.045 | 1.79 ± 0.083
AUCGUG | 1.59 ± 0.084 | 1.74 ± 0.027
AGGGUG | 1.64 ± 0.046 | 1.7 ± 0.12
UGUCCA | 1.8 ± 0.013 | 1.87 ± 0.068
CGUACC | 1.74 ± 0.039 | 1.89 ± 0.09
AGAUUC | 1.7 ± 0.021 | 1.85 ± 0.093
AUGCCG | 1.7503 ± 0.0015 | 1.86 ± 0.13
UACUAA | 1.71 ± 0.014 | 1.81 ± 0.061
UUGCAU | 1.669 ± 0.0095 | 1.81 ± 0.081
UACCAC | 1.698 ± 0.0019 | 1.82 ± 0.11
UACGCA | 1.78 ± 0.018 | 1.89 ± 0.067
CGGAGG | 1.623 ± 0.014 | 1.82 ± 0.12
GUCUCG | 1.867 ± 0.0092 | 1.88 ± 0.073
AGGUCU | 1.73 ± 0.045 | 1.85 ± 0.14
GCCACG | 1.68 ± 0.051 | 1.81 ± 0.12
CCGCGA | 1.59 ± 0.053 | 1.76 ± 0.07
AGUCGC | 1.731 ± 0.0037 | 1.85 ± 0.12
AGUCGU | 1.6615 ± 0.0012 | 1.79 ± 0.08
ACUCGA | 1.52 ± 0.065 | 1.73 ± 0.11
UGGCCC | 1.88 ± 0.062 | 1.96 ± 0.094
AUUCUU | 1.72 ± 0.052 | 1.88 ± 0.11

Variant | normalized RNA/DNA level without ligand (log10) (cyclic di-GMP [1]) | normalized RNA/DNA level with ligand (log10) (cyclic di-GMP [2])
AUUCUG | 1.68 ± 0.071 | 1.81 ± 0.11
CUAGUU | 1.739 ± 0.0023 | 1.89 ± 0.06
CAUGCA | 1.52 ± 0.05 | 1.66 ± 0.067
UUUGCA | 1.78 ± 0.018 | 1.85 ± 0.1
GCCGGG | 1.86 ± 0.089 | 1.93 ± 0.13
UUGGGC | 1.72 ± 0.023 | 1.84 ± 0.091
UUCCAA | 1.7 ± 0.037 | 1.84 ± 0.13
GAACUG | 1.66 ± 0.059 | 1.75 ± 0.089
CGAUAG | 1.7 ± 0.056 | 1.87 ± 0.12
UAUAAG | 1.66 ± 0.03 | 1.82 ± 0.14
ACUAAC | 1.607 ± 0.015 | 1.76 ± 0.15
ACAUCC | 1.68 ± 0.047 | 1.83 ± 0.14
GGCAAC | 1.72 ± 0.05 | 1.82 ± 0.1
CGCAGG | 1.61 ± 0.034 | 1.84 ± 0.03
CCGCUA | 1.43 ± 0.078 | 1.68 ± 0.091
UGCCAA | 1.689 ± 0.0043 | 1.83 ± 0.12
GCGUGC | 1.68 ± 0.0027 | 1.81 ± 0.14
GUAGCU | 1.74 ± 0.065 | 1.83 ± 0.1
UGGGCG | 1.84 ± 0.035 | 1.92 ± 0.13
CCGAUA | 1.31 ± 0.13 | 1.54 ± 0.075
GAUGCU | 1.73 ± 0.033 | 1.85 ± 0.12
GCGCAG | 1.78 ± 0.023 | 1.9 ± 0.094
AAUCAU | 1.64 ± 0.02 | 1.78 ± 0.093

Variant | normalized RNA/DNA level without ligand (log10) (cyclic di-GMP [1]) | normalized RNA/DNA level with ligand (log10) (cyclic di-GMP [2])
AAUCAC | 1.71 ± 0.027 | 1.83 ± 0.096
UAUGAG | 1.653 ± 0.0081 | 1.82 ± 0.12
GCAGCG | 1.83 ± 0.035 | 1.92 ± 0.072
CUUCCU | 1.64 ± 0.025 | 1.8 ± 0.084
GUGCUC | 1.505 ± 0.0047 | 1.65 ± 0.17
UACUCA | 1.77 ± 0.062 | 1.89 ± 0.18
GCGCGG | 1.796 ± 0.0029 | 1.87 ± 0.087
UCGACU | 1.6114 ± 7.1e-07 | 1.82 ± 0.12
AGGGAU | 1.54 ± 0.084 | 1.74 ± 0.086
ACGACG | 1.57 ± 0.058 | 1.74 ± 0.082
UUCCGG | 1.84 ± 0.045 | 1.93 ± 0.043
CCUCAC | 1.698 ± 0.0058 | 1.85 ± 0.1
GCAGUG | 1.736 ± 0.0028 | 1.78 ± 0.11
UUCGCG | 1.837 ± 0.0073 | 1.93 ± 0.089
AUCAAG | 1.57 ± 0.1 | 1.76 ± 0.062
CUCCUU | 1.61 ± 0.071 | 1.79 ± 0.051
CUCGUA | 1.6 ± 0.025 | 1.76 ± 0.086
GAAUAC | 1.62 ± 0.026 | 1.78 ± 0.095
AAUGCC | 1.73 ± 0.034 | 1.83 ± 0.11
UCAAAU | 1.5 ± 0.063 | 1.71 ± 0.092
AGAUCA | 1.59 ± 0.076 | 1.74 ± 0.081
ACUUAU | 1.55 ± 0.042 | 1.73 ± 0.074
AGUCUC | 1.764 ± 0.0076 | 1.88 ± 0.085

Variant | normalized RNA/DNA level without ligand (log10) (cyclic di-GMP [1]) | normalized RNA/DNA level with ligand (log10) (cyclic di-GMP [2])
CUCCGG | 1.79 ± 0.072 | 1.87 ± 0.17
UCGUCU | 1.72 ± 0.043 | 1.89 ± 0.094
UACAUC | 1.64 ± 0.037 | 1.81 ± 0.13
CCUCUC | 1.79 ± 0.053 | 1.89 ± 0.14
AGCAGG | 1.822 ± 0.018 | 1.85 ± 0.1
CCCGGC | 1.75 ± 0.031 | 1.88 ± 0.07
CAUACG | 1.81 ± 0.051 | 1.91 ± 0.052
CCCAGU | 1.736 ± 0.015 | 1.86 ± 0.068
CCCAGC | 1.72 ± 0.03 | 1.84 ± 0.16
ACCCGA | 1.54 ± 0.039 | 1.73 ± 0.13
UACUUC | 1.763 ± 0.0059 | 1.87 ± 0.12
UCACUG | 1.632 ± 0.0038 | 1.81 ± 0.16
UUAAUC | 1.77 ± 0.075 | 1.83 ± 0.14
GUUUCC | 1.82 ± 0.07 | 1.88 ± 0.15
UGCCGA | 1.626 ± 0.012 | 1.79 ± 0.12
UCUACU | 1.696 ± 0.012 | 1.82 ± 0.097
GCUCUC | 1.66 ± 0.026 | 1.81 ± 0.079
CCUAAG | 1.56 ± 0.049 | 1.74 ± 0.095
GAAAGG | 1.56 ± 0.041 | 1.72 ± 0.12
UGUUGG | 1.71 ± 0.04 | 1.86 ± 0.076
UAGAGG | 1.67 ± 0.087 | 1.82 ± 0.1
UAGAGA | 1.51 ± 0.042 | 1.72 ± 0.089
UAUCUU | 1.72 ± 0.054 | 1.88 ± 0.088
